Test results as given in US20230174955A1.

Tests used:
[1] = target: full length collagen (with foldON), expressed in Pichia strain PP654 (vector MMV-398); assay: cell-based or functional assay
[2] = target: collagen secreted by strains PP766 and PP767 along with mimiP4H
[3] = target: purified collagen derived from strain PP685, added to fermentation supernatant
[4] = target: collagen substrate of the in-vitro hydroxylation reaction with purified secreted mimiP4H

Row | Molecule | hydroxylation level of collagen (mass spec of gel band; in vivo, PP654 in fermenters) [1] [%] | hydroxylation of secreted collagen in fermentation supernatant [2] | hydroxylation of added purified collagen in unpurified fermentation supernatant [3] | %HyP, colorimetric assay, in-vitro hydroxylation reaction [4]
1 | mimi-virus P4H (monomeric prolyl 4-hydroxylase), intracellular, expressed in Pichia strain PP654 from vector MMV-580 (enzyme) | 17 |  |  | 
2 | secreted mimi-virus P4H from Pichia (vector MMV-644; strains PP765, PP766, PP767), with 6X His tag at the C-terminus (protein) VLSKSCVSHFRNVGSLNSRDVNLKDDFSYANIDDPYNKPFVLNNLINPTKCQEIMQFANGKLFDSQVLSGTDKNIRNSQQMWISKNNPMVKPIFENICRQFNVPFDNAEDLQVVRYLPNQYYNEHHDSCCDSSKQCSEFIERGGQRILTVLIYLNNEFSDGHTYFPNLNQKFKPKTGDALVFYPLANNSNKCHPYSLHAGMPVTSGEKWIANLWFRERKFSHHHHHH |  | An increase in hydroxylation was observed for both the secreted collagen and added purified collagen | All reactions showed an increase in the hydroxylation over the pre-reaction levels (~3%) | Ni-NTA purified mimiP4H showed 24% hydroxylation
